Data: patent publication US20150309050A1
No end group written: not given here.

How the values were obtained:
VT028 antiserum [1] = assay: RIA standard curve, tracer iodinated PACAP(31-38); 4 pg cold standard
VT027 antiserum [2] = assay: as above
VT026 antiserum [3] = assay: as above
VT027 antiserum [4] = assay: RIA standard curve, tracer iodinated PACAP(31-38); 1,020 pg cold standard
VT026 antiserum [5] = assay: as above
VT028 antiserum [6] = assay: RIA standard curve, tracer iodinated PACAP(31-38); 32 pg cold standard; period in the CPM read as thousands mark
VT028 antiserum [7] = assay: RIA standard curve, tracer iodinated PACAP(31-38); 1 pg cold standard; period in the CPM read as thousands mark
VT028 antiserum [8] = assay: RIA standard curve, tracer iodinated PACAP(31-38); 1 pg cold standard
VT027 antiserum [9] = assay: as above
VT026 antiserum [10] = assay: as above
VT028 antiserum [11] = assay: RIA standard curve, tracer iodinated PACAP(31-38); 2.040 pg cold standard as printed (read as 2,040)
[12] = biological target: PACAP38 RIA antiserum (Peninsula Laboratories); assay: competition RIA, double antibody immunoprecipitation, antiserum 1:30,000
VT028 antiserum [13] = assay: RIA standard curve, tracer iodinated PACAP(31-38); 16 pg cold standard; period in the CPM read as thousands mark
VT027 antiserum [14] = assay: RIA standard curve, tracer iodinated PACAP(31-38); 3 pg cold standard (so in the source)
VT028 antiserum [15] = assay: RIA standard curve, tracer iodinated PACAP(31-38); 16 pg cold standard
VT028 antiserum [16] = assay: RIA standard curve, tracer iodinated PACAP(31-38); 54 pg cold standard (so in the source)
VT028 antiserum [17] = assay: RIA standard curve, tracer iodinated PACAP(31-38); 128 pg cold standard; period in the CPM read as thousands mark
VT028 antiserum [18] = assay: RIA standard curve, tracer iodinated PACAP(31-38); 1.020 pg cold standard as printed (read as 1,020); period in the CPM read as thousands mark
VT026 antiserum [19] = assay: competition RIA, tracer iodinated PACAP(31-38); high end tied to VT026 by Table 5 (20.3 fmol)
VT028 antiserum [20] = assay: RIA standard curve, tracer iodinated PACAP(31-38); 128 pg cold standard
VT026 antiserum [21] = assay: as above
VT028 antiserum [22] = assay: RIA standard curve, tracer iodinated PACAP(31-38); 54 pg cold standard (so in the source); period in the CPM read as thousands mark
VT028 antiserum [23] = assay: RIA standard curve, tracer iodinated PACAP(31-38); 2 pg cold standard
VT027 antiserum [24] = assay: as above
VT026 antiserum [25] = assay: as above
VT028 antiserum [26] = assay: RIA standard curve, tracer iodinated PACAP(31-38); 32 pg cold standard
VT027 antiserum [27] = assay: as above
VT026 antiserum [28] = assay: as above
VT027 antiserum [29] = assay: competition RIA, tracer iodinated PACAP(31-38); low end tied to VT027 by Table 6 (41 pg)
VT028 antiserum [30] = assay: RIA standard curve, tracer iodinated PACAP(31-38); 1.020 pg cold standard as printed (read as 1,020)
VT028 antiserum [31] = assay: RIA standard curve, tracer iodinated PACAP(31-38); 4 pg cold standard; period in the CPM read as thousands mark
VT027 antiserum [32] = assay: RIA standard curve, tracer iodinated PACAP(31-38); 2,040 pg cold standard
VT026 antiserum [33] = assay: as above
VT026 antiserum [34] = assay: RIA standard curve, tracer iodinated PACAP(31-38); 5 pg cold standard (so in the source)
VT028 antiserum [35] = assay: RIA standard curve, tracer iodinated PACAP(31-38); 8 pg cold standard
VT027 antiserum [36] = assay: RIA standard curve, tracer iodinated PACAP(31-38); 18 pg cold standard (so in the source)
VT026 antiserum [37] = assay: as above
VT028 antiserum [38] = assay: competition RIA, antiserum 1:200K, tracer iodinated PACAP(31-38)
VT027 antiserum [39] = assay: as above
VT027 antiserum [40] = assay: RIA standard curve, tracer iodinated PACAP(31-38); 125 pg cold standard (so in the source)
VT028 antiserum [41] = assay: RIA standard curve, tracer iodinated PACAP(31-38); 255 pg cold standard
VT027 antiserum [42] = assay: as above
VT026 antiserum [43] = assay: as above
VT028 antiserum [44] = assay: RIA standard curve, tracer iodinated PACAP(31-38); 8 pg cold standard; period in the CPM read as thousands mark
VT028 antiserum [45] = assay: RIA standard curve, tracer iodinated PACAP(31-38); 510 pg cold standard; period in the CPM read as thousands mark
VT026 antiserum [46] = assay: competition RIA, antiserum 1:100K, tracer iodinated PACAP(31-38)
VT028 antiserum [47] = assay: RIA standard curve, tracer iodinated PACAP(31-38); 255 pg cold standard; period in the CPM read as thousands mark
VT028 antiserum [48] = assay: RIA standard curve, tracer iodinated PACAP(31-38); 510 pg cold standard
VT027 antiserum [49] = assay: as above
VT026 antiserum [50] = assay: as above
VT028 antiserum [51] = assay: RIA standard curve, tracer iodinated PACAP(31-38); 2 pg cold standard; period in the CPM read as thousands mark
VT027 antiserum [52] = assay: RIA standard curve, tracer iodinated PACAP(31-38); 84 pg cold standard (so in the source)
VT026 antiserum [53] = assay: as above

## HSDGIFTDSYSRYRKQMAVKKYLAAVLGKRYKQRVKNK (peptide, UniProt P18509 132-169, looked up, not fully specified; ends and bridges not checked) [PACAP38]
VT028 antiserum [1]
  BINDING: 0.946
VT027 antiserum [2]
  BINDING: 0.589
  CPM: 7280 cpm
VT026 antiserum [3]
  BINDING: 0.957
  CPM: 5510 cpm
VT027 antiserum [4]
  BINDING: 0.0512
  CPM: 858 cpm
VT026 antiserum [5]
  BINDING: 0.0598
  CPM: 800 cpm
VT028 antiserum [6]
  CPM: 8840 cpm
VT028 antiserum [7]
  CPM: 11300 cpm
VT028 antiserum [8]
  BINDING: 0.993
VT027 antiserum [9]
  BINDING: 0.978
  CPM: 7960 cpm
VT026 antiserum [10]
  BINDING: 0.973
  CPM: 5600 cpm
VT028 antiserum [11]
  BINDING: 0.0389
  CPM: 684 cpm
[12]
  assay midpoint: 3.5 fmol
VT028 antiserum [13]
  CPM: 10100 cpm
VT027 antiserum [14]
  BINDING: 0.835
  CPM: 6850 cpm
VT028 antiserum [15]
  BINDING: 0.88
VT028 antiserum [16]
  BINDING: 0.606
VT028 antiserum [17]
  CPM: 4350 cpm
VT028 antiserum [18]
  CPM: 1020 cpm
VT026 antiserum [19]
  assay midpoint: 20 fmol
VT028 antiserum [20]
  BINDING: 0.367
VT026 antiserum [21]
  BINDING: 0.427
  CPM: 2800 cpm
VT028 antiserum [22]
  CPM: 7010 cpm
VT028 antiserum [23]
  BINDING: 0.981
VT027 antiserum [24]
  BINDING: 0.931
  CPM: 7620 cpm
VT026 antiserum [25]
  BINDING: 0.961
  CPM: 5540 cpm
VT028 antiserum [26]
  BINDING: 0.77
VT027 antiserum [27]
  BINDING: 0.584
  CPM: 4860 cpm
VT026 antiserum [28]
  BINDING: 0.728
  CPM: 4250 cpm
VT027 antiserum [29]
  assay midpoint: 9 fmol
VT028 antiserum [30]
  BINDING: 0.0685
VT028 antiserum [31]
  CPM: 10800 cpm
VT027 antiserum [32]
  BINDING: 0.0302
  CPM: 490 cpm
VT026 antiserum [33]
  BINDING: 0.0479
  CPM: 515 cpm
VT026 antiserum [34]
  BINDING: 0.945
  CPM: 5450 cpm
VT028 antiserum [35]
  BINDING: 0.914
VT027 antiserum [36]
  BINDING: 0.715
  CPM: 5900 cpm
VT026 antiserum [37]
  BINDING: 0.859
  CPM: 4980 cpm
VT028 antiserum [38]
  DETECTION LIMIT: 6.69 pg
  MIDPOINT [fmol]: 19.3 fmol
  MIDPOINT [pg]: 67 pg
VT027 antiserum [39]
  DETECTION LIMIT: 2.19 pg
  MIDPOINT [fmol]: 92 fmol
  MIDPOINT [pg]: 41 pg
VT027 antiserum [40]
  BINDING: 0.245
  CPM: 2190 cpm
VT028 antiserum [41]
  BINDING: 0.227
VT027 antiserum [42]
  BINDING: 0.147
  CPM: 1140 cpm
VT026 antiserum [43]
  BINDING: 0.271
  CPM: 1740 cpm
VT028 antiserum [44]
  CPM: 10400 cpm
VT028 antiserum [45]
  CPM: 1730 cpm
VT026 antiserum [46]
  DETECTION LIMIT: 5.38 pg
  MIDPOINT [fmol]: 20.3 fmol
  MIDPOINT [pg]: 92 pg
VT028 antiserum [47]
  CPM: 2760 cpm
VT028 antiserum [48]
  BINDING: 0.133
VT027 antiserum [49]
  BINDING: 0.0789
  CPM: 875 cpm
VT026 antiserum [50]
  BINDING: 0.142
  CPM: 1030 cpm
VT028 antiserum [51]
  CPM: 11200 cpm
VT027 antiserum [52]
  BINDING: 0.411
  CPM: 3500 cpm
VT026 antiserum [53]
  BINDING: 0.502
  CPM: 3450 cpm
